{
  "source": "patent US20100190693",
  "key": {"[1]": {"target": "GST-TORC2 (aa 161-181) Ser171Ala, Q53ET0", "sequence (Q53ET0 whole entry S171A, looked up, the tested form may be a part)": "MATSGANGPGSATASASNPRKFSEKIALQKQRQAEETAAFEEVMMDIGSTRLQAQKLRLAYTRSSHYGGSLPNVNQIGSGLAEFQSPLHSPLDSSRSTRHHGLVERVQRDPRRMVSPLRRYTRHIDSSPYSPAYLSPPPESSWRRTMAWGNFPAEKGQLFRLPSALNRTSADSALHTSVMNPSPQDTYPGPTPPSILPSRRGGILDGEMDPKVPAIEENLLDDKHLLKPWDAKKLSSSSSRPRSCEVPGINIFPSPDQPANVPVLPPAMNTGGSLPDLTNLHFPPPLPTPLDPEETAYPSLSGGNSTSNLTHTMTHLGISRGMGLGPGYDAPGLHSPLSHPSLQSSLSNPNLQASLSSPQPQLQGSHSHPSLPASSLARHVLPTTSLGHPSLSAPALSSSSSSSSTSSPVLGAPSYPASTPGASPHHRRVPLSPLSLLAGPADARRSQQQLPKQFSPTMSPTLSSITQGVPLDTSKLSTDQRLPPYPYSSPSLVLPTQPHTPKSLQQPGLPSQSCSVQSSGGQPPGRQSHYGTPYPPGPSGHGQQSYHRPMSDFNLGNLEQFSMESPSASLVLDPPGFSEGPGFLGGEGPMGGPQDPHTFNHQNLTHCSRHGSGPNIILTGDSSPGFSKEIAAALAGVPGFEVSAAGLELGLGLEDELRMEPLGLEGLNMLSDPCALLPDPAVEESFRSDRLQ"}, "[2]": {"target": "T1, GST-TORC2 (aa 161-181), wild-type, Q53ET0 (not fully specified)", "T1 chain": "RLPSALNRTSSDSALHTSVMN"}},
  "data": [
    {"protein": "Salt Inducible Kinase 2 (SIK2) (protein) MVMADGPRHLQRGPVRVGFYDIEGTLGKGNFAVVKLGRHRITKTEVAIKIIDKSQLDAVNLEKIYREVQIMKMLDHPHIIKLYQVMETKSMLYLVTEYAKNGEIFDYLANHGRLNESEARRKFWQILSAVDYCHGRKIVHRDLKAENLLLDNNMNIKIADFGFGNFFKSGELLATWCGSPPYAAPEVFEGQQYEGPQLDIWSMGVVLYVLVCGALPFDGPTLPILRQRVLEGRFRIPYFMSEDCEHLIRRMLVLDPSKRLTIAQIKEHKWMLIEVPVQRPVLYPQEQENEPSIGEFNEQVLRLMHSLGIDQQKTIESLQNKSYNHFAAIYFLLVERLKSHRSSFPVEQRLDGRQRRPSTIAEQTVAKAQTVGLPVTMHSPNMRLLRSALLPQASNVEAFSFPASGCQAEAAFMEEECVDTPKVNGCLLDPVPPVLVRKGCQSLPSNMMETSIDEGLETEGEAEEDPAHAFEAFQSTRSGQRRHTLSEVTNQLVVMPGAGKIFSMNDSPSLDSVDSEYDMGSVQRDLNFLEDNPSLKDIMLANQPSPRMTSPFISLRPTNPAMQALSSQKREVHNRSPVSFREGRRASDTSLTQGIVAFRQHLQNLARTKGILELNKVQLLYEQIGPEADPNLAPAAPQLQDLASSCPQEEVSQQQESVSTLPASVHPQLSPRQSLETQYLQHRLQKPSLLSKAQNTCQLYCKEPPRSLEQQLQEHRLQQKRLFLQKQSQLQAYFNQMQIAESSYPQPSQQLPLPRQETPPPSQQAPPFSLTQPLSPVLEPSSEQMQYSPFLSQYQEMQLQPLPSTSGPRAAPPLPTQLQQQQPPPPPPPPPPRQPGAAPAPLQFSYQTCELPSAASPAPDYPTPCQYPVDGAQQSDLTGPDCPRSPGLQEAPSSYDPLALSELPGLFDCEMLDAVDPQHNGYVLVN", "values": [
      {"measurement": "in vitro kinase assay, 32P-labeling", "setting": "[1]", "result": "SIK2 was found to phosphorylate wild-type but not Ser171Ala mutant TORC2 in vitro"},
      {"measurement": "in vitro kinase assay, 32P-labeling", "setting": "[2]", "result": "SIK2 was found to phosphorylate wild-type but not Ser171Ala mutant TORC2 in vitro"}
    ]}
  ]
}
